Reference: patent US20100291155A1, “ALLERGY VACCINE COMPOSITION FOR MUCOSAL ADMINISTRATION” (ALK-Abello A/S, priority 2008, published 2010)
Entries after “also recorded” stand apart in the source; their conditions may differ.

How the values were obtained:
nDer p 1 [1] = target: T1, nDer p 1 (Dermatophagoides pteronyssinus, UniProt P08176); assay type: biochemical, D. pteronyssinus
T1 construct: Der p 1 has only been found in its mature form in the D. pteronyssinus faecal particles; from tissue; host or cells: D. pteronyssinus mite material
T1 sequence (P08176 99-320): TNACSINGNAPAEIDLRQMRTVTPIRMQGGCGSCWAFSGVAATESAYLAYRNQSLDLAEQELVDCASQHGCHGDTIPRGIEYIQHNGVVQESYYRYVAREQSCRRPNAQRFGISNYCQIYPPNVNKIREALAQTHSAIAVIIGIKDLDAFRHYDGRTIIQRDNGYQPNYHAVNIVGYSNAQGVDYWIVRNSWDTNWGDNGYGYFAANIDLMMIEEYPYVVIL
Method: (§1) The enzymatic activity of nDer p 1 was evaluated using the peptide substrate Z-LLE linked to the fluorescent group AMC. […] When Der p 1 is added, it cleaves the bond between AMC and the peptide sequence and the fluorescence increases considerably. Therefore the product formation was evaluated in terms of increase in fluorescence.
(§2) All activity assays were performed on a Spectra Max instrument (GeminiXS Molecular Devises) at a temperature of 37° C. The fluorescence was measured using an excitation wavelength (λex) of 350 nm and emission wavelength (λem) of 450 nm. The Spectra Max instrument was set to automix before the first read and in between reads. The enzymatic activity was measured in RFU, relative fluorescent units. Using the software SoftMax® PRO 4.3 LS, the initial velocity of the reaction (V0) was estimated from the maximal slope of the progress curve.
(§3) Stock solutions of assay buffer (50 mM Tris (Sigma), 5 mM EDTA (Fluka)) and 1 M DTT (Merck) were made once and kept at +5° C. and −20° C. respectively. DTT was kept in aliquots of 55 μl, and when necessary DTT was added to the assay buffer just before use.
(§4) The total volume applied for each well in the micro titer plate (Corning, 96-well non-binding black polystyrene plate) amounted to 200 μl. The reaction was always started by the addition of 50 μl of 0.1 mM or 1 mM substrate diluted in assay buffer, and the fluorescence was measured continuously for 20-90 minutes.
It was evaluated whether nDer p 8, as a glutathione S-transferase, could catalyse the activation of nDer p 1 by GSH. In this assay, nDer p1 was kept at 1.3 μM and the GSH concentration at 100 μM (physiological concentration in the airways). nDer p 8 was added at four different concentrations: 0.4 μM, 0.6 μM, 0.8 μM and 1.2 μM. The last two components to be added to the well were GSH quickly followed by the substrate. The reaction was followed during 90 minutes.

nDer p 1 [2] = target: T1, nDer p 1; assay type: biochemical, D. pteronyssinus; remark: listed apart in the source
Method: as §1, §2, §3, §4
It was tested whether glutathione (GSH) could activate nDer p 1, and whether the activation was dose-dependent. The activity of 1.3 μM nDer p 1 was determined in the presence of different GSH concentrations of 0.5 mM, 1.0 mM, 5.0 mM, 10.0 mM and 25.0 mM. As a control, the activity was also measured in the presence of 5 mM DTT. The fluorescence was measured for 90 minutes.

nDer p 1 [3] = target: T1, nDer p 1; assay: Proteolytic activity of purified nDer p 1 pools in presence or absence of E64 (Z-LLE-AMC substrate); assay type: biochemical, D. pteronyssinus; settings: for enzymatic activity of Der p 1 pool: DTT as reducing agent, absence of E64, 0.1 mM Z-LLE-AMC, 37° C.
Method: as §1, §2, §3, §4
An enzymatic assay in the presence or absence of the cysteine protease specific inhibitor E64 was used in order to verify the identity of the purified protein as cysteine protease. One aliquot of nDer p 1 was pre-incubated for 1 hour at 37° C. with 25 μM E64 dissolved in assay buffer, while another aliquot was not. Afterwards the substrate was added at 0.1 mM concentration. The fluorescence was measured for 20 minutes. The concentration of nDer p 1 in the assay was 2.6 μM.

[4] = system: confluent airway epithelial cells; settings: in vitro, Wan et al. 1999; cited from earlier work
[5] = proteolytically active Der p 1 versus Der p 1 inactivated with E64, cited from earlier work
[6] = 0.1 mM GSH, nDer p 8 0.4-1.2 μM

Molecule: N[C@@H](CCC(=O)N[C@@H](CS)C(=O)NCC(=O)O)C(=O)O [GSH, Glutathione]
- Der p 1 activity when activated by GSH (nDer p 1 [1]; 0.1 mM GSH, no Der p 8): very low
- lag time of Der p 1 activation (nDer p 1 [1]; 0.1 mM GSH, no Der p 8): approximately 30 minutes
- activation of nDer p 1 by GSH (nDer p 1 [2]; 1.3 μM nDer p 1, GSH 0.5-25.0 mM, 90 minutes): dose-dependent
- time after which nDer p 1 activity evolves (nDer p 1 [2]; 5.0 mM GSH): approx. 8 minutes
- time after which nDer p 1 activity boosts (nDer p 1 [2]; 10.0 mM GSH): 6 min
- time after which nDer p 1 activity increases notably (nDer p 1 [2]; 25.0 mM): 3 min
- correlation between initial velocity of nDer p 1 activity and GSH concentration (nDer p 1 [2]; FIG. 4): approximate linear correlation
- lag time of nDer p 1 activation (time required to detect enzyme activity) (nDer p 1 [2]; GSH 0.1-0.5 mM (physiological concentrations in the airways)): around 30 minutes
- speed of nDer p 1 activation compared with DTT (nDer p 1 [2]; control 5 mM DTT): slower than the activation by DTT

Molecule: nDer p 8: glutathione S-transferase from Dermaphagoides pteronyssinus, 25589 Da, 219 amino acids
- time until activity differentiated from the test without nDer p 8 (nDer p 1 [1]; 0.4 μM nDer p 8, 0.1 mM GSH): over 30 minutes
- time after which activity increased (nDer p 1 [1]; 1.2 μM Der p 8, 0.1 mM GSH): approximately 8 minutes
- velocity of the reaction at the end of the assay versus nDer p 8 concentration (nDer p 1 [1]; 0.1 mM GSH, FIG. 6): increases significantly
- effect of Der p 8 on Der p 1 activity (activation by GSH) (nDer p 1 [1]; [6]): higher; also recorded: enhances the activation
- effect of Der p 8 on lag time of Der p 1 activation (nDer p 1 [1]; [6]): shorter

Molecule: CC(C)C[C@H](NC(=O)[C@H]1O[C@@H]1C(=O)O)C(=O)NCCCCN=C(N)N (relative stereo) [E64, L-trans-epoxysuccinyl-leucylamido(4-guanidino)butane, reference compound]
- inhibition of nDer p 1 proteolytic activity (nDer p 1 [3]; 25 μM E64, pre-incubated 1 hour at 37° C., 2.6 μM nDer p 1): completely inhibited; also recorded: entirely inhibited

B1: nDer p 1: major house dust mite allergen, a 25371 Da papain-like cysteine protease purified from D. pteronyssinus (protein, UniProt P08176 99-320, looked up)
Peptidase 1: TNACSINGNAPAEIDLRQMRTVTPIRMQGGCGSCWAFSGVAATESAYLAYRNQSLDLAEQELVDCASQHGCHGDTIPRGIEYIQHNGVVQESYYRYVAREQSCRRPNAQRFGISNYCQIYPPNVNKIREALAQTHSAIAVIIGIKDLDAFRHYDGRTIIQRDNGYQPNYHAVNIVGYSNAQGVDYWIVRNSWDTNWGDNGYGYFAANIDLMMIEEYPYVVIL
- Der p 1 activity alone (nDer p 1 [1]; 1.3 μM nDer p 1, substrate present, no reducing agent): no activity
- nDer p 1 activity when GSH is absent (nDer p 1 [2]; no GSH): no activity
- effect on intercellular tight junctions [4]: causes disruption of intercellular tight junctions
- lung inflammation ([5]; mice): notably higher
- total IgE level in the circulation ([5]; sensitized mice, intranasal): significantly higher

B2: Pool 2: second flow-through peak of nDer p 1 from the SBTI-agarose column (protein, UniProt P08176 99-320, looked up)
Peptidase 1: TNACSINGNAPAEIDLRQMRTVTPIRMQGGCGSCWAFSGVAATESAYLAYRNQSLDLAEQELVDCASQHGCHGDTIPRGIEYIQHNGVVQESYYRYVAREQSCRRPNAQRFGISNYCQIYPPNVNKIREALAQTHSAIAVIIGIKDLDAFRHYDGRTIIQRDNGYQPNYHAVNIVGYSNAQGVDYWIVRNSWDTNWGDNGYGYFAANIDLMMIEEYPYVVIL
modifications: SBTI-agarose flow-through pool 2
- enzymatic activity of Der p 1 pool (nDer p 1 [3]): did not show any activity
- enzymatic activity of Der p 1 pool (nDer p 1 [3]; listed as second pool): did not show any significant activity

B3: nDer p 1 pool 1: first flow-through peak of nDer p 1 from the SBTI-agarose column (protein, UniProt P08176 99-320, looked up)
Peptidase 1: TNACSINGNAPAEIDLRQMRTVTPIRMQGGCGSCWAFSGVAATESAYLAYRNQSLDLAEQELVDCASQHGCHGDTIPRGIEYIQHNGVVQESYYRYVAREQSCRRPNAQRFGISNYCQIYPPNVNKIREALAQTHSAIAVIIGIKDLDAFRHYDGRTIIQRDNGYQPNYHAVNIVGYSNAQGVDYWIVRNSWDTNWGDNGYGYFAANIDLMMIEEYPYVVIL
modifications: SBTI-agarose flow-through pool 1
- enzymatic activity of Der p 1 pool (nDer p 1 [3]): there was activity
- enzymatic activity of Der p 1 pool (nDer p 1 [3]; listed as first pool): clear activity
